Source: the supplement of paper PMC12338614
± gives the uncertainty stated by the source.

B1: library; numbered along this chain (parent)
chain: MEVVDPQQLGMFTEGELMSVGMDTFIHRIDSTEVIYQPRRKRAKLIGKYLMGDLLGEGSYGKVKEVLDSETLCRRAVKILKKKKLRRIPNGEANVKKEIQLLRRLRHKNVIQLVDVLYNEEKQKMYMVMEYCVCGMQEMLDSVPEKRFPVCQAHGYFCQLIDGLEYLHSQGIVHKDIKPGNLLLTTGGTLKISDLGVAEALHPFAADDTCRTSQGSPAFQPPEIANGLDTFSGFKVDIWSAGVTLYNITTGLYPFEGDNIYKLFENIGKGSYAIPGDCGPPLSDLLKGMLEYEPAKRFSIRQIRQHSWFRKKHPPAEAPVPIPPSPDTKDRWRSMTVVPYLEDLHGADEDEDLFDIEDDIIYTQDFTVPGQVPEEEASHNGQRRGLPKAVCMNGTEAAQLSTKSRAEGRAPNPARKACSASSKIRRLSACKQQ

Variants of: B1
Assay: STK11 functional score (HeLa growth suppression), rescaled enrichment; synonymous median = 1, nonsense median = 0 (normalised score)
Details: with HeLa; variant type: missense
Experimental: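 Deep mutational scan (TileSeq/POPCode codon randomisation) of full-length codon-optimised STK11 cDNA integrated at a Bxb1 landing pad (AAVS1) in HeLa cells. Restoring functional STK11 suppresses HeLa proliferation. Variant frequencies were measured by NGS before and after about two weeks of growth. The error-corrected enrichment log-ratio was rescaled so that synonymous median = 1 and nonsense median = 0, scores above 1 were compressed, and codon-level and three biological replicate scores were combined; error is the bootstrapped standard error. Scale: synonymous median = 1, nonsense median = 0; below 0.5 = damaging.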

| Variant | STK11 functional score |
| --- | --- |
| V3I | 1.06 ± 0.43 |
| L160F | 0.36 ± 0.21 |
| K62N | 1.6 ± 0.6 |
| T367I | 1.38 ± 0.23 |
| L102F | 1.11 ± 0.17 |
| L102Q | 1.48 ± 0.65 |
| G135P | 1.7 ± 0.27 |
| G135W | 0.571 ± 0.6 |
| L67P | 0.0421 ± 0.099 |
| L67A | 0.924 ± 0.77 |
| T186R | 1.11 ± 0.36 |
| R106P | 1.14 ± 0.42 |
| K78L | 0.107 ± 0.12 |
| K78C | 0.21 ± 0.078 |
| K78V | -0.0951 ± 0.078 |
| Y362I | 1.56 ± 0.15 |
| T185V | 0.913 ± 0.25 |
| L353G | 1.52 ± 0.15 |
| L400D | 1.19 ± 0.3 |
| K191R | 1.42 ± 0.19 |
| A318V | 1.11 ± 0.093 |
| G215L | 1.04 ± 0.15 |
| M127H | 1.63 ± 0.2 |
| M127N | 1.63 ± 0.19 |

| Variant | STK11 functional score |
| --- | --- |
| A218N | 1.35 ± 0.28 |
| A218L | 0.905 ± 0.11 |
| K388L | 0.826 ± 0.34 |
| V95Q | 1.46 ± 0.45 |
| L286A | 0.163 ± 0.2 |
| K416P | 1.61 ± 0.21 |
| K416R | 1.54 ± 0.16 |
| E342K | 1.61 ± 0.47 |
| E342V | 1.46 ± 0.17 |
| E342R | 1.54 ± 0.21 |
| V372M | 0.74 ± 0.69 |
| Y126R | 0.256 ± 0.18 |
| Y126T | -0.0466 ± 0.081 |
| E374A | 0.915 ± 0.21 |
| E374Y | 1.29 ± 0.38 |
| E374R | 1.61 ± 0.28 |
| I322L | 0.886 ± 0.078 |
| I322G | -0.0839 ± 0.11 |
| F255T | 0.94 ± 0.13 |
| F255N | 0.322 ± 0.14 |
| F255C | 0.921 ± 0.12 |
| F255G | 0.519 ± 0.14 |
| P89T | 0.786 ± 0.13 |
| P149G | 0.926 ± 0.23 |

| Variant | STK11 functional score |
| --- | --- |
| P149M | 1.02 ± 0.2 |
| T230W | 1.17 ± 0.48 |
| E57G | 1.08 ± 0.35 |
| E165Y | 1.24 ± 0.15 |
| D176Y | -0.343 ± 0.096 |
| D176K | -0.194 ± 0.099 |
| A76L | -0.332 ± 0.077 |
| A76Q | 0.447 ± 0.14 |
| R211Y | 1.53 ± 0.57 |
| R211I | 0.844 ± 0.4 |
| R211P | 1.19 ± 0.33 |
| G61S | 0.916 ± 0.13 |
| G61L | 0.588 ± 0.27 |
| G61P | 0.916 ± 0.26 |
| Q137A | 1.02 ± 0.15 |
| Q137I | 0.934 ± 0.38 |
| Q137K | 0.752 ± 0.41 |
| E65C | 1.07 ± 0.12 |
| P387N | 1.63 ± 0.24 |
| P387V | 1.13 ± 0.56 |
| F264S | 0.597 ± 0.21 |
| F264I | 0.658 ± 0.51 |
| P221F | -0.0165 ± 0.09 |
| S240L | 0.708 ± 0.14 |

| Variant | STK11 functional score |
| --- | --- |
| Y118K | 0.568 ± 0.17 |
| K48Y | 1.4 ± 0.13 |
| H379P | 1.46 ± 0.23 |
| A347W | 1.59 ± 0.16 |
| T336S | 1 ± 0.49 |
| K41C | 1.47 ± 0.3 |
| D327V | 1.31 ± 0.46 |
| I361A | 1.47 ± 0.26 |
| E376P | 1.31 ± 0.15 |
| E376C | 1.46 ± 0.15 |
| R103Q | 1.27 ± 0.41 |
| D359Y | 1.13 ± 0.21 |
| R304Y | -0.17 ± 0.25 |
| L9A | 1.28 ± 0.12 |
| G242T | -0.128 ± 0.097 |
| H154L | 0.189 ± 0.086 |
| H154P | -0.204 ± 0.089 |
| K296M | 1.32 ± 0.89 |
| I267F | 0.659 ± 0.071 |
| T395V | 1.04 ± 0.19 |
| K311T | 1.3 ± 0.18 |
| Y36C | 1.11 ± 0.25 |
| D162C | 1.28 ± 0.15 |
| D162I | 1.05 ± 0.58 |

| Variant | STK11 functional score |
| --- | --- |
| S142P | 1.34 ± 0.13 |
| D194C | -0.228 ± 0.094 |
| D194I | -0.258 ± 0.083 |
| K269W | 0.728 ± 0.12 |
| K269N | 1.23 ± 0.35 |
| S334R | 0.671 ± 0.28 |
| S334L | 1.24 ± 0.18 |
| K262N | 1.33 ± 0.53 |
| K262T | 1.08 ± 0.31 |
| E396S | 1.18 ± 0.19 |
| R297L | -0.121 ± 0.1 |
| R297T | -0.0209 ± 0.12 |
| R297A | 0.147 ± 0.078 |
| G180Q | 1.64 ± 0.19 |
| G180T | 1.53 ± 0.19 |
| T363R | 1.14 ± 0.24 |
| Q112I | 1.52 ± 0.19 |
| Q112T | 1.27 ± 0.39 |
| A406H | 1.6 ± 0.25 |
| A406I | 1.6 ± 0.32 |
| I35N | 1.02 ± 0.76 |
| C418R | 1.54 ± 0.13 |
| C73M | 1.7 ± 0.41 |
| P373N | 1.59 ± 0.28 |

| Variant | STK11 functional score |
| --- | --- |
| G15C | 1.15 ± 0.21 |
| A397L | 1.27 ± 0.27 |
| A397D | 1.32 ± 0.35 |
| A397T | 1.51 ± 0.23 |
| L113V | 0.44 ± 0.1 |
| I161R | -0.0321 ± 0.14 |
| D258G | 1.47 ± 0.15 |
| M139I | 1.01 ± 0.15 |
| S169L | 0.7 ± 0.33 |
| Y292E | 1.52 ± 0.22 |
| K329W | 0.742 ± 0.31 |
| H306Y | 0.195 ± 0.17 |
| L195W | 0.87 ± 0.12 |
| E293R | 0.395 ± 0.12 |
| C391N | 0.483 ± 0.73 |
| L105G | 0.712 ± 0.15 |
| E14V | 1.03 ± 0.29 |
| T250R | 0.727 ± 0.25 |
| N393G | 1.36 ± 0.31 |
| K64N | 0.93 ± 0.15 |
| C210W | 0.601 ± 0.2 |
| T189F | 1.25 ± 0.47 |
| F148P | -0.111 ± 0.086 |
| L386A | 1.6 ± 0.23 |

| Variant | STK11 functional score |
| --- | --- |
| E92R | 1.64 ± 0.4 |
| F204D | 1.09 ± 0.12 |
| F204R | 0.931 ± 0.16 |
| F204G | 1.3 ± 0.17 |
| A206D | 1.07 ± 0.12 |
| G56H | 0.0953 ± 0.25 |
| V338G | 1.18 ± 0.3 |
| Q159L | 0.623 ± 0.11 |
| Q159H | 0.00983 ± 0.14 |
| Q159A | 1.13 ± 0.21 |
| E70Y | 1.14 ± 0.29 |
| E70P | -0.12 ± 0.11 |
| I360F | 0.809 ± 0.12 |
| I99F | 1.64 ± 0.16 |
| D207A | 1.27 ± 0.29 |
| D207Y | 0.314 ± 0.099 |
| D207G | 0.954 ± 0.25 |
| A273R | 1.13 ± 0.38 |
| A273P | 1.4 ± 0.28 |
| G288H | 1.61 ± 0.19 |
| N90T | 0.558 ± 0.27 |
| N247R | 0.936 ± 0.16 |
| L184G | 0.204 ± 0.079 |
